The values that follow are results of earlier work, collected in article PMC4926285.

pKd: −log10 of the molar value.

This data set has as its target insulin receptor (site 1) site 1 (L1 and carboxy-terminal α-chain) (Homo sapiens) (UniProt P06213).
UniProt P06213, sequence (P06213 28-182): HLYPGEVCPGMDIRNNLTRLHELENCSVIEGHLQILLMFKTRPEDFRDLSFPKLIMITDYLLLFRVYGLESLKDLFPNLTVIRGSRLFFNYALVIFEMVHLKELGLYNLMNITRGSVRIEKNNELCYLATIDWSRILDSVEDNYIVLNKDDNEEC

insulin, sequence (P01308 90-110): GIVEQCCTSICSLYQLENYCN

In the case of insulin (from UniProt P01308), the pKd (as a rule, the Kd on a negative log10 scale, so that one unit is a factor of ten) was 8.19.
